According to the nanobody polyreactivity screen of Harvey et al. (2022):

test: yeast display, Sf9 membrane polyspecificity reagent, FACS + sequencing; frameworks hold sequencing errors
Procedure, shortened: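 After 36–48 hours of galactose induction, yeast (Saccharomyces cerevisiae BJ5465) displaying a synthetic nanobody library were stained at 4 °C for 1 hour with 10% biotinylated, detergent-solubilized Sf9 membrane reagent. Streptavidin microbeads enriched the stained cells before FACS sorting into low and high (top ~1%) gates on anti-HA and streptavidin fluorescence. Each clone's polyreactivity label reflects its gate of origin.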

With “QVQLVESGGGLVQAGGSLRLSCAASGSTFPLNAMAWYRHAPGKERELVAAITWSGANTYYADSVKGRFTISRDNAKNTVYLQMNSLKPEDTAVYYCAAGSYAGFAVIGYYYWGQGTQVTVSS” as the sequence, how does the “polyreactivity (PSR sort gate)” value read?
The value was “low polyreactivity”.

For “QVQLVESGGGLVQAGGSLRLSCAASGSTFPLYAMGRYRQAPGKERELVAAITSGGGNTYYADSLKGRFTISRDNAKNTVYLQMNSLKPEDTAVYYCAAVGGYKSYYSYEYDYWGQGTQVTVSS”, which “polyreactivity (PSR sort gate)” value is on record?
The value was “low polyreactivity”.

Which “polyreactivity (PSR sort gate)” value does the source give for “QVQLVESGGGLVQAGGSLRLSCAASGSTFPLYAMGWYRQAPGKERELVAAITTGGGNTYYADSVKGRFTISRDNAKNTVYLQLNSLTPEDTAVYYCAKPYHIGLSGRRTYDYWGQGTQVTVSS” here?
The value was “high polyreactivity”.

With “QVQLVESGGGLVQAGGSLRLSCAASGSTFPPNAMGWYRQAPGKERELVAAISASGGRTYYADSVKGRFTISRDNAKNTVYLQMNSLKPEDTAVYYCNARGGRYGRGSSDQLDYYWGQGTQVTVSS” as the sequence, how does the “polyreactivity (PSR sort gate)” value read?
Its value is “high polyreactivity”.

For “QVQLVESGGGLVQAGGSLRLSCAASGSTFPPNAMGWYRQAPGKERELVADSSDSSTYYADSVKGRFTISRDNAKNTVYLQMNSLKPEDTAVYYCAAADAGLRSKSYGQQYDYWGQGTQVTVSS”, which “polyreactivity (PSR sort gate)” value is on record?
The value was “low polyreactivity”.

With “QVQLVESGGGLVQAGGSLRLSCAASGSTFPPYAMGWYRQAPGKERELVAAISWSGSGSTYYADSVKGRFTISRDNAKNTVYLQMNSLKPEDTAVYYCAAGYVRVITPAYYYWGQGTQVTVSS” as the sequence, how does the “polyreactivity (PSR sort gate)” value read?
Its value is “low polyreactivity”.

Which “polyreactivity (PSR sort gate)” value does the source give for “QVQLVESGGGLVQAGGSLRLSCAASGSTFPPYVIGWYRPAPGKERELVAAITWSSGSTYYADSVKGRFTISRDNAKNTVYLQMNSLKPEDTAVYYCAARAYRWGQGTQVTVSS” here?
Its value is “low polyreactivity”.

Which “polyreactivity (PSR sort gate)” value does the source give for “QVQLVESGGGLVQAGGSLRLSCAASGSTFPPYVMGWYRQAPGKERELVAAISRGGGSTYYADSVKGRFTISRDNAKNTVYLQMNSLKPEDTAVYYCAAKNVYHDDYWGQGTQVTVSS” here?
The value was “high polyreactivity”.

Which “polyreactivity (PSR sort gate)” value does the source give for “QVQLVESGGGLVQAGGSLRLSCAASGSTFPQNDMGWYRQAPGKERELVAAITRSAGSTYYADSVKGRFTISRDNAKNTVYLQMNSLKPEDTAVYYCNTGRQRGDGWGQGTQVTVSS” here?
Its value is “high polyreactivity”.

With “QVQLVESGGGLVQAGGSLRLSCAASGSTFPQNVMGWYRQAPGKERELVAAITRSAGSTYYADSVKGRFTISRDNAKNTVYLQMNSLKPEDTADYYCNTGRQRGDCWGQGTQVTVSS” as the sequence, how does the “polyreactivity (PSR sort gate)” value read?
The value was “high polyreactivity”.

With “QVQLVESGGGLVQAGGSLRLSCAASGSTFPQYAMGWYRQAPGKERELVAAISARGDSTSYADSVKGRFTISRDNAKNTVYLQMNSLKPEDTAVYYCNAPSRNGFSVTDTPDGYDYWGQGTQVTVSS” as the sequence, how does the “polyreactivity (PSR sort gate)” value read?
The value was “low polyreactivity”.

For “QVQLVESGGGLVQAGGSLRLSCAASGSTFPRNDMGWYRQAPGKERELVAAISRGGSTNYADSVKGRFTISRDNAKNTVYLQMNSLKPEDTAVYYCAAQIFECAYGMDYWGQGTQVTVSS”, which “polyreactivity (PSR sort gate)” value is on record?
The value was “low polyreactivity”.

Which “polyreactivity (PSR sort gate)” value does the source give for “QVQLVESGGGLVQAGGSLRLSCAASGSTFPRNDMGWYRQAPGKERELVAAISRGGSTNYADSVKGRFTISRDNAKNTVYLQMNSLKPEDTAVYYCAAQIIESAYGMDYWGQGTQVTVSS” here?
Its value is “low polyreactivity”.

With “QVQLVESGGGLVQAGGSLRLSCAASGSTFPRYAMGWFRQAPGKEREFVAAISRRGGSTYYADSVKGRFTISRDNAKNTVYLQMNSLKPEDTAVYYCANRVRTGSVGNFNYWGQGTQVTVSS” as the sequence, how does the “polyreactivity (PSR sort gate)” value read?
The value was “high polyreactivity”.

For “QVQLVESGGGLVQAGGSLRLSCAASGSTFPRYAMGWYRPAPGKERELVAAISSSGRTYYADSVKGRFTISRDNAKNTVYLQMNSLNPEDTAVYYCNAPVARGEASYYWGQGTQVTVSS”, which “polyreactivity (PSR sort gate)” value is on record?
Its value is “high polyreactivity”.

With “QVQLVESGGGLVQAGGSLRLSCAASGSTFPRYAMGWYRQAPGKERELVATITSGGSTYYADSVKGCFTISRDNAKNTFYLQMNSLKPEDTAVYYCAAGYRWTYTSGTYIRYNYWGQVTQVTVSS” as the sequence, how does the “polyreactivity (PSR sort gate)” value read?
Its value is “high polyreactivity”.
